Here are results for five molecules from PMC10825579.

B1: VHH clone Ig-S506 (cluster Ig-7) (VHH)
VHH: QVQLVESGGGLVQAGGSLRLSCAASGFTFDDYVIGWFRQAPGKEREGVSCISSSDGSTNYADSVKGRFTISSDNAKNTVYLQMNSLKPEDTAVYYCAEGPTVLDGCIYDSGSYYFSWGQGTQVTVSS
B2: VHH clone Ig-S6584 (cluster Ig-7) (VHH)
VHH: B1 VHH with V33I, I34V, S52R, I70V, G111E
B3: VHH clone Ig-S1139 (cluster Ig-7) (VHH)
VHH: B1 VHH with N59Y, Y108V
B4: VHH clone Ig-S8492 (cluster Ig-7) (VHH)
VHH: B1 VHH with S57R, N59D, E98A, D109Y
B5: VHH clone Ig-S675 (cluster Ig-7) (VHH)
VHH: B1 VHH with S25T, P41S, S52R, S57D, N59Y, I70V, Y108V, G111E

Where a chain is given by its changes, count along the chain named.

What is called Kd is the free concentration of one partner at which half of the binding sites on the other are occupied at equilibrium, for simple one-to-one binding. By koff is commonly meant the rate constant with which the complex falls apart. The low end stands for a long-lived complex, the high end for a short-lived complex. By kon is commonly meant the rate constant with which the complex forms. Read a high kon as fast association.

The assay has as its target Fab of trastuzumab (human). Kind of assay: SPR; Fab of trastuzumab amine-coupled to a CM5 chip (1,000 RU), VHH as analyte in a 1/2 dilution series; Biacore X100, HBS-EP (10 mM HEPES pH 7.4, 150 mM NaCl, 3 mM EDTA, 0.005% P20), 20°C, 10 µL/min, association 360 s, dissociation 800 s; 1:1 binding model. On the technique in general: Surface plasmon resonance follows binding to a sensor surface in real time, without labels.
Take B1: the Kd worked out at 246 nM, the koff was 0.0073 s⁻¹ and the kon turned out to be 29700 M⁻¹ s⁻¹.

For B2, the Kd amounted to 5.99 nM, the koff stood at 0.000221 s⁻¹ and the kon turned out to be 36900 M⁻¹ s⁻¹.

Take B3: the Kd stood at 233 nM, the off-rate (koff) came to 0.00554 s⁻¹ and the kon is 23700 M⁻¹ s⁻¹.

B4 yielded a Kd of 123 nM, a koff of 0.000245 s⁻¹ and an on-rate (kon) of 1990 M⁻¹ s⁻¹.

In the case of B5, the Kd was 0.155 nM, the koff turned out to be 4.71e-05 s⁻¹ and the kon came out at 303000 M⁻¹ s⁻¹.
